We go through 2 molecules from patent US7063946B2, “Methods, reagents, kits and apparatus for protein function analysis” (Meso Scale Technologies, LLC., priority 2001, dated 2006).

For one assay, the target named is T1, IkBa-24pp (SEQ ID NO: 1) (Homo sapiens, UniProt P25963).
T1 construct: two phosphoserines in the DSGLDS motif (chemical modification); purchased New England Peptide, Fitchburg Mass; host or cells: chemical synthesis
Briefly: Single-well 4-spot assay for multiple peptide-protein interactions. The format is binding. An excerpt: Four phosphopeptides and their cognate binding proteins (Table 14) were selected for an integrated assay of multiple peptide-protein interaction in 4-spot Multi-Array plates. The IkBa-24pp peptide and its binding protein, βTRCP, are described in Example 10. The remaining peptides are derived from the carboxyl terminus of the EGF receptor. These phosphotyrosine containing peptides are recognized by different adaptor or effecter proteins of the receptor tyrosine kinase signaling pathway.
These four peptides were coupled to BSA carrier protein through cystine residue. After purification on PD-10 gel filtration columns, the peptide-BSA conjugates were then deposited on the assay domains of a 4-spot multi-array IPR plate (i.e., in one of the four exposed regions of working electrode defined by the dielectric layer) with an automated micro-dispensing system (Bio-Dot Dispenser, Bio-Dot, Irvine Calif.). Typically about 120 fmole of peptide:BSA conjugate in 0.25 μl was deposited on each spot of a 4-spot multi-array IPR plate. These plates are dried then used or stored under desiccated conditions. […] Thus, in this assay format, each peptide not only serves as the capture agent for assaying specific interaction with its binding protein, but also at the same time serves as a control for other peptide-protein interaction to be determined in the same well. […]

A further assay addresses T2, EGFR (Homo sapiens, UniProt P00533).
T2 construct: autophosphorylated tyrosines (self-phosphorylated with ATP before use); purchased Sigma Chemical Co, MO
Briefly: EGFR binding assay, bound EGFR detected with TAG labeled anti-EGFR.

Another assay concerns the target T3, pY1148 (SEQ ID NO: 9) (Homo sapiens, UniProt P00533).
T3 construct: phosphotyrosine at Tyr1148 (chemical modification); purchased New England Peptide, Fitchburg Mass; host or cells: chemical synthesis
The experiment in a line: 96-well screen for phosphopeptide binding proteins, 7-spot IPR plates. The conditions noted are these: two steps of normalization; top 9 clones. Here is the method:
(§1) A screen was conducted using 7-spot IPR plates. The 7 spot NPT IPR plates are described in more detail in copending Provisional Application No. 60/301,932 (entitled “Assay Plates, Reader Systems and Methods for Luminescence Test Measurements”, filed on Jun. 29, 2001, hereby incorporated by reference) and particularly in the description of Plate Type D in Example 6.1 (NPT IPR plate) and U.S. application Ser. Nos. 10/185,274 and 10/185,363, filed Jun. 28, 2002, each hereby incorporated by reference. These plates consist of a 96 wells with 7 zones (spots) for the immobilization of proteins or other reagents. Each spot was coated with BSA conjugated to either a single phosphopeptide or multiple phosphopeptides.
(§2) The plates were prepared essentially as described in example 12. The seven spots supported, respectively, the following BSA conjugates IkB, pY992, pY1068, pY1148, Myc, “A”, and “6-P”. “A” refers to a conjugate of BSA with multiple peptides: IkB, pY1148, Myc which were then coupled to BSA. “6-P” refers to a conjugate of BSA with the following multiple peptides: IkB, pY1148, pY992, pY1068, Smad3C.
(§3) For the assay, 4 ul from TnT reaction product described above were added to the coated plate containing 50 μl of binding buffer supplemented with 50 ng/well Ru-Streptavidin. The binding reaction was allowed to proceed at room temperature for 1 hour with constant shaking. […] The ECL signals were measured using an imaging plate reader (IPR). The raw data from the IPR reader was then normalized using two steps of normalization. The first round was based on the 50 lowest values for a given specific spot.

For assay [1], the target named is T4, pY992 peptide (SEQ ID NO: 5) (Homo sapiens, UniProt P00533).
T4 construct: phosphotyrosine at Tyr992 (chemical modification); purchased New England Peptide, Fitchburg Mass; host or cells: chemical synthesis
The description is as above. The following applies: two steps of normalization; top 9 clones. The method, then: as §1, §2, §3

The target in assay [2] is T5, pY1068 peptide (SEQ ID NO: 7) (Homo sapiens, UniProt P00533).
T5 construct: phosphotyrosine at Tyr1068 (chemical modification); purchased New England Peptide, Fitchburg Mass; host or cells: chemical synthesis
Described as above. The conditions noted are these: two steps of normalization; top 9 clones. Here is the method: as §1, §2, §3

T1 sequence (P25963 with tags, fused parts or gaps limits assumed): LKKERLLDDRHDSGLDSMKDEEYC

B1: 4237375: IMAGE clone protein: βTRCP2 (protein)
chain: MEPDSVIEDKTIELMCSVPRSLWLGCANLVESMCALSCLQSMPSVRCLQISNGTSSVIVSRKRPSEGNYQKEKDLCIKYFDQWSESDQVEFVEHLISRMCHYQHGHINSYLKPMLQRDFITALPEQGLDHIAENILSYLDARSLCAAELVCKEWQRVISEGMLWKKLIERMVRTDPLWKGLSERRGWDQYLFKNRPTDGPPNSFYRSLYPKIIQDIETIESNWRCGRHNLQRIQCRSENSKGVYCLQYDDEKIISGLRDNSIKIWDKTSLECLKVLTGHTGSVLCLQYDERVIVTGSSDSTVRVWDVNTGEVLNTLIHHNEAVLHLRFSNGLMVTCSKDRSIAVWDMASATDITLRRVLVGHRAAVNVVDFDDKYIVSASGDRTIKVWSTSTCEFVRTLNGHKRGIACLQYRDRLVVSGSSDNTIRLWDIECGACLRVLEGHEELVRCIRFDNKRIVSGAYDGKIKVWDLQAALDPRAPASTLCLRTLVEHSGRVFRLQFDEFQIISSSHDDTILIWDFLNVPPSAQNETRSPSRTYTYISR
For B1, in the assay with IkBa-24pp (SEQ ID NO: 1) (4-spot plate), the “ECL signal, spot 1 IkBa-24pp” value came to 5040. Also, in the assay with IkBa-24pp (SEQ ID NO: 1) (spot 1 (IkBa-24pp-BSA conjugate)), the “fold higher ECL signal from spot 1 than with TnT mixtures containing no exogenous DNA” value came out at 100 fold.

B2: 4419252: IMAGE clone protein: PLCγ (protein)
chain: MAGAASPCANGCGPGAPSDAEVLHLCRSLEVGTVMTLFYSKKSQRPERKTFQVKLETRQITWSRGADKIEGAIDIREIKEIRPGKTSRDFDRYQEDPAFRPDQSHCFVILYGMEFRLKTLSLQATSEDEVNMWIKGLTWLMEDTLQAPTPLQIERWLRKQFYSVDRNREDRISAKDLKNMLSQVNYRVPNMRFLRERLTDLEQRSGDITYGQFAQLYRSLMYSAQKTMDLPFLEASTLRAGERPELCRVSLPEFQQFLLDYQGELWAVDRLQVQEFMLSFLRDPLREIEEPYFFLDEFVTFLFSKENSVWNSQLDAVCPDTMNNPLSHYWISSSHNTYLTGDQFSSESSLEAYARCLRMGCRCIELDCWDGPDGMPVIYHGHTLTTKIKFSDVLHTIKEHAFVASEYPVILSIEDHCSIAQQRNMAQYFKKVLGDTLLTKPVEISADGLPSPNQLKRKILIKHKKLAEGSAYEEVPTSMMYSENDISNSIKNGILYLEDPVNHEWYPHYFVLTSSKIYYSEETSSDQGNEDEEEPKEVSSSTELHSNEKWFHGKLGAGRDGRHIAERLLTEYCIETGAPDGSFLVRESETFVGDYTLSFWRNGKVQHCRIHSRQDAGTPKFFLTDNLVFDSLYDLITHYQQVPLRCNEFEMRLSEPVPQTNAHESKEWYHASLTRAQAEHMLMRVPRDGAFLVRKRNEPNSYAISFRAEGKIKHCRVQQEGQTVMLGNSEFDSLVDLISYYEKHPLYRKMKLRYPINEEALEKIGTAEPDYGALYEGRNPGFYVEANPMPTFKCAVKALFDYKAQREDELTFIKSAIIQNVEKQEGGWWRGDYGGKKQLWFPSNYVEEMVNPVALEPEREHLDENSPLGDLLRGVLDVPACQIAIRPEGKNNRLFVFSISMASVAHWSLDVAADSQEELQDWVKKIREVAQTADARLTEGKIMERRKKIALELSELVVYCRPVPFDEEKIGTERACYRDMSSFPETKAEKYVNKAKGKKFLQYNRLQLSRIYPKGQRLDSSNYDPLPMWICGSQLVALNFQTPDKPMQMNQALFMTGRHCGYVLQPSTMRDEAFDPFDKSSLRGLEPCAISIEVLGARHLPKNGRGIVCPFVEIEVAGAEYDSTKQKTEFVVDNGLNPVWPAKPFHFQISNPEFAFLRFVVYEEDMFSDQNFLAQATFPVKGLKTGYRAVPLKNNYSEDLELASLLIKIDIFPAKENGDLSPFSGTSLRERGSDASGQLFHGRAREGSFESRYQQPFEDFRISQEHLADHFDSRERRAPRRTRVNGDNRL
Turning to B2, the ECL signal in the assay with EGFR (+EGFR) is reported as 30,389; with EGFR (no EGFR), 2,271. In addition, the “normalized ECL signal, pY1148 spot” value in the assay with pY1148 (SEQ ID NO: 9) was found to be 4. For the same molecule, in assay [1], the “normalized ECL signal, pY992 spot” value amounted to 10. For the same molecule, in assay [2], the “normalized ECL signal, pY1068 spot” value is reported as 55.
